# Test system: Arabidopsis thaliana T1 plants
# Assay: Topramezone tolerance of transgenic Arabidopsis thaliana T1 plants (pesticide damage grade by bleached leaf area, score, resistance evaluation)
# Type: in vivo
# Parameters: score: scale not given here
# Settings: for tolerance to topramezone, in words: topramezone 25, 50, 100 g ai/ha; for Grade 0 / Grade 1 / Grade 2 / Grade 3: number of plants; for Classification and statistics of pesticide damage grade Grade 0 / Classification and statistics of pesticide damage grade Grade 1 / Classification and statistics of pesticide damage grade Grade 2 / Classification and statistics of pesticide damage grade Grade 3 / Scores / Resistance evaluation: HPPDs from different species, 7 DAT; for Classification and statistics of pesticide damage grade Grade 0 / Classification and statistics of pesticide damage grade Grade 1 / Classification and statistics of pesticide damage grade Grade 2 / Classification and statistics of pesticide damage grade Grade 3: number of plants (of 16) in this grade; for Scores: score for pesticide damage 0-100
# From the text: The Arabidopsisthaliana T1 plants into which the AsHPPDm-F372A-02 nucleotide sequence was introduced, Arabidopsis thaliana T1 plants into which the AsHPPD-02 nucleotide sequence was introduced and wild-type Arabidopsisthaliana plants (18 days after sowing) were sprayed with topramezone at four different concentrations, i.e., 25 g ai/ha (one-fold field concentration, 1×), 50 g ai/ha (two-fold field concentration, 2×), 100 g ai/ha (four-fold field concentration, 4×) and 0 g ai/ha (water, 0×) to determine the tolerance of Arabidopsisthaliana to the herbicide. The degree of damage caused by the herbicide was measured for each plant according to the proportion of bleached leaf area (the proportion of bleached leaf area=bleached leaf area/total leaf area×100%) 7 days after spraying (7 DAT): the case where there is basically no bleached phenotype is defined as grade 0, the case where the proportion of bleached leaf area is less than 50% is defined as grade 1,the case where the proportion of bleached leaf area is more than 50% is defined as grade 2, and the case where the proportion of bleached leaf area is 100% grade is defined as grade 3.
# (§1) According to the method as described above in point 6 of Example 1, the aforementioned Arabidopsisthaliana T1 plants and wild-type Arabidopsisthaliana plants (18 days after sowing) were sprayed with topramezone at three different concentrations respectively, i.e., 25 g ai/ha (one-fold field concentration, 1×), 100 g ai/ha (four-fold field concentration, 4×) and 0 g ai/ha(water, 0×) to detect the tolerance of Arabidopsisthaliana to the herbicide.
# as §1, with “1x),” for “1×),”, “4x)” for “4×)”, “ai/ha (water, 0x)” for “ai/ha(water, 0×)”
# According to the method as described above in point 6 of Example 1, the above-mentioned Arabidopsisthaliana T1 plants, Arabidopsisthaliana T1 plants into which the AsHPPD-02 nucleotide sequence was introduced, Arabidopsisthaliana T1 plants into which the PfHPPD-02 nucleotide sequence was introduced, and wild-type Arabidopsisthaliana plants (18 days after sowing) were sprayed with topramezone at four different concentrations respectively, that is, 25 g ai/ha (one-fold field concentration, 1x), 50 g ai/ha (two-fold field concentration, 2x), 100 g ai/ha (four-fold field concentration, 4x) and 0 g ai/ha (water, Ox) to detect the herbicide tolerance of Arabidopsisthaliana.
# According to the method as described in point 6 of Example 1, the above-mentioned Arabidopsisthaliana T1 plants and wild-type Arabidopsisthaliana plants (18 days after sowing) were sprayed with topramezone at two different concentrations respectively, that is, 25 g ai/ha (one-fold field concentration, 1x) and 100 g ai/ha (four-fold field concentration, 4x) to detect the herbicide tolerance of Arabidopsisthaliana,. […]
# [1] = saturation mutation of HPPD from Avena sativa source (label F372X = AsHPPDm-F372X)
# [2] = topramezone 25 g ai/ha (1x), HPPD from Avena sativa source
# [3] = topramezone 50 g ai/ha (2x), HPPD from Avena sativa source
# [4] = topramezone 100 g ai/ha (4x), HPPD from Avena sativa source
# [5] = topramezone 25 g ai/ha, mutation combination, Table 8
# [6] = topramezone 100 g ai/ha, mutation combination, Table 8
molecule,measurement,setting,value
"F372G (protein, listed as Avena sativa, AsHPPD Amido Acid Sequence) MPPTPATATGAAAAAVTPEHAARSFPRVVRVNPRSDRFPVLSFHHVELWCADAASAAGRFSFALGAPLAARSDLSTGNSAHASLLLRSGALAFLFTAPYAPPPQEAATAAATASIPSFSADAARTFAAAHGLAVRSVGVRVADAAEAFRVSVAGGARPAFAPADLGHGFGLAEVELYGDVVLRFVSYPDETDLPFLPGFERVSSPGAVDYGLTRFDHVVGNVPEMAPVIDYMKGFLGFHEFAEFTAEDVGTTESGLNSVVLANNSEAVLLPLNEPVHGTKRRSQIQTYLEYHGGPGVQHIALASNDVLRTLREMRARTPMGGFEFMAPPQAKYYEGVRRIAGDVLSEEQIKECQELGVLVDRDDQGVLLQIGTKPVGDRPTFFLEMIQRIGCMEKDEVGQEYQKGGCGGFGKGNFSELFKSIEDYEKSLEVKQSVVAQKS","tolerance to topramezone, in words",[1],better tolerance
same,Resistance Grade,[2],Highly resistant
same,score,[2],0
same,Grade 0,[2],20
same,Grade 1,[2],0
same,Grade 2,[2],0
same,Grade 3,[2],0
same,Resistance Grade,[3],Highly resistant
same,score,[3],0
same,Grade 0,[3],20
same,Grade 1,[3],0
same,Grade 2,[3],0
same,Grade 3,[3],0
same,Resistance Grade,[4],Highly resistant
same,score,[4],0
same,Grade 0,[4],20
same,Grade 1,[4],0
same,Grade 2,[4],0
same,Grade 3,[4],0
"F372V (protein, listed as Avena sativa, AsHPPD Amido Acid Sequence) MPPTPATATGAAAAAVTPEHAARSFPRVVRVNPRSDRFPVLSFHHVELWCADAASAAGRFSFALGAPLAARSDLSTGNSAHASLLLRSGALAFLFTAPYAPPPQEAATAAATASIPSFSADAARTFAAAHGLAVRSVGVRVADAAEAFRVSVAGGARPAFAPADLGHGFGLAEVELYGDVVLRFVSYPDETDLPFLPGFERVSSPGAVDYGLTRFDHVVGNVPEMAPVIDYMKGFLGFHEFAEFTAEDVGTTESGLNSVVLANNSEAVLLPLNEPVHGTKRRSQIQTYLEYHGGPGVQHIALASNDVLRTLREMRARTPMGGFEFMAPPQAKYYEGVRRIAGDVLSEEQIKECQELGVLVDRDDQGVLLQIVTKPVGDRPTFFLEMIQRIGCMEKDEVGQEYQKGGCGGFGKGNFSELFKSIEDYEKSLEVKQSVVAQKS","tolerance to topramezone, in words",[1],better tolerance
same,Resistance Grade,[2],Highly resistant
same,score,[2],0
same,Grade 0,[2],20
same,Grade 1,[2],0
same,Grade 2,[2],0
same,Grade 3,[2],0
same,Resistance Grade,[3],Highly resistant
same,score,[3],0
same,Grade 0,[3],20
same,Grade 1,[3],0
same,Grade 2,[3],0
same,Grade 3,[3],0
same,Resistance Grade,[4],Highly resistant
same,score,[4],0
same,Grade 0,[4],20
same,Grade 1,[4],0
same,Grade 2,[4],0
same,Grade 3,[4],0
"F372N (protein, listed as Avena sativa, AsHPPD Amido Acid Sequence) MPPTPATATGAAAAAVTPEHAARSFPRVVRVNPRSDRFPVLSFHHVELWCADAASAAGRFSFALGAPLAARSDLSTGNSAHASLLLRSGALAFLFTAPYAPPPQEAATAAATASIPSFSADAARTFAAAHGLAVRSVGVRVADAAEAFRVSVAGGARPAFAPADLGHGFGLAEVELYGDVVLRFVSYPDETDLPFLPGFERVSSPGAVDYGLTRFDHVVGNVPEMAPVIDYMKGFLGFHEFAEFTAEDVGTTESGLNSVVLANNSEAVLLPLNEPVHGTKRRSQIQTYLEYHGGPGVQHIALASNDVLRTLREMRARTPMGGFEFMAPPQAKYYEGVRRIAGDVLSEEQIKECQELGVLVDRDDQGVLLQINTKPVGDRPTFFLEMIQRIGCMEKDEVGQEYQKGGCGGFGKGNFSELFKSIEDYEKSLEVKQSVVAQKS","tolerance to topramezone, in words",[1],better tolerance
same,Resistance Grade,[2],Highly resistant
same,score,[2],7
same,Grade 0,[2],18
same,Grade 1,[2],0
same,Grade 2,[2],2
same,Grade 3,[2],0
same,Resistance Grade,[3],Highly resistant
same,score,[3],0
same,Grade 0,[3],20
same,Grade 1,[3],0
same,Grade 2,[3],0
same,Grade 3,[3],0
same,Resistance Grade,[4],Highly resistant
same,score,[4],0
same,Grade 0,[4],20
same,Grade 1,[4],0
same,Grade 2,[4],0
same,Grade 3,[4],0
"F372I (protein, listed as Avena sativa, AsHPPD Amido Acid Sequence) MPPTPATATGAAAAAVTPEHAARSFPRVVRVNPRSDRFPVLSFHHVELWCADAASAAGRFSFALGAPLAARSDLSTGNSAHASLLLRSGALAFLFTAPYAPPPQEAATAAATASIPSFSADAARTFAAAHGLAVRSVGVRVADAAEAFRVSVAGGARPAFAPADLGHGFGLAEVELYGDVVLRFVSYPDETDLPFLPGFERVSSPGAVDYGLTRFDHVVGNVPEMAPVIDYMKGFLGFHEFAEFTAEDVGTTESGLNSVVLANNSEAVLLPLNEPVHGTKRRSQIQTYLEYHGGPGVQHIALASNDVLRTLREMRARTPMGGFEFMAPPQAKYYEGVRRIAGDVLSEEQIKECQELGVLVDRDDQGVLLQIITKPVGDRPTFFLEMIQRIGCMEKDEVGQEYQKGGCGGFGKGNFSELFKSIEDYEKSLEVKQSVVAQKS","tolerance to topramezone, in words",[1],better tolerance
"PfHPPD-02: native Pseudomonas fluorescens HPPD, SEQ ID NO: 27 (protein, listed as Pseudomonas fluorescens, PfHPPD Amino Acid Sequence) MADLYENPMGLMGFEFIEFASPTPGTLEPIFEIMGFTKVATHRSKNVHLYRQGEINLILNNEPNSIASYFAAEHGPSVCGMAFRVKDSQKAYNRALELGAQPIHIDTGPMELNLPAIKGIGGAPLYLIDRFGEGSSIYDIDFVYLEGVERNPVGAGLKVIDHLTHNVYRGRMVYWANFYEKLFNFREARYFDIKGEYTGLTSKAMSAPDGMIRIPLNEESSKGAGQIEEFLMQFNGEGIQHVAFLTDDLVKTWDALKKIGMRFMTAPPDTYYEMLEGRLPDHGEPVDQLQARGILLDGSSVEGDKRLLLQIFSETLMGPVFFEFIQRKGDDGFGEGNFKALFESIERDQVRRGVLTAD",Classification and statistics of pesticide damage grade Grade 0,topramezone 25 g ai/ha (1x),0
same,Classification and statistics of pesticide damage grade Grade 1,topramezone 25 g ai/ha (1x),0
same,Classification and statistics of pesticide damage grade Grade 2,topramezone 25 g ai/ha (1x),0
same,Classification and statistics of pesticide damage grade Grade 3,topramezone 25 g ai/ha (1x),16
same,Classification and statistics of pesticide damage grade Grade 0,topramezone 100 g ai/ha (4x),0
same,Classification and statistics of pesticide damage grade Grade 1,topramezone 100 g ai/ha (4x),0
same,Classification and statistics of pesticide damage grade Grade 2,topramezone 100 g ai/ha (4x),0
same,Classification and statistics of pesticide damage grade Grade 3,topramezone 100 g ai/ha (4x),16
same,Scores,topramezone 25 g ai/ha (1x),100
same,Scores,topramezone 100 g ai/ha (4x),100
same,Resistance evaluation,topramezone 25 g ai/ha (1x),non-resistant (non-resistant plants (scores 68-100))
same,Resistance evaluation,topramezone 100 g ai/ha (4x),non-resistant (non-resistant plants (scores 68-100))
same,"tolerance to topramezone, in words",saturation mutation of HPPD from Pseudomonas fluorescens source (label F372X = PfHPPDm-F372X),no tolerance
same,Grade 0 (number of plants),[5],0
same,Grade 1 (number of plants),[5],0
same,Grade 2 (number of plants),[5],0
same,Grade 3 (number of plants),[5],20
same,Resistance Grade,[5],Non-resistant
same,score,[5],100
same,Grade 0 (number of plants),[6],0
same,Grade 1 (number of plants),[6],0
same,Grade 2 (number of plants),[6],0
same,Grade 3 (number of plants),[6],20
same,Resistance Grade,[6],Non-resistant
same,score,[6],100

# Source: patent publication US20230212587A1, “Mutant Hydroxyphenylpyruvate Dioxygenase Polypeptide, Encoding Gene Thereof and Use Therefor” (Beijing Dabeinong Biotechnology Co., Ltd., priority 2019, published 2023)
